# Data from patent US20230331829A1 (KOREA ADVANCED INSTITUTE OF SCIENCE AND TECHNOLOGY, published 2023).
# B1: anti-PROX1-single chain Fv-His (clone #1A11) (scFv, V domains shown)
# VH: AVTLDESGGGLQTPGGGLSLVCKASGFTFSSYAMNWVRQAPGKGLEWVAAIDDDGSYTGYGSAVKGRATISRDNGQSTVRLQLNNLRAEDTAIYYCAKAAGSGYCYRGANSSYTCGTYNAGDIDAWGHGTEVIVSS
# VL: LTQPSSVSANLGETVEITCSGGSGSYGWYQQKSPGSAPVTLIYDNANRPSNIPSRFSGSKSGSTGTLTITGVRAEDEAVYYCGNVDSSTYVGMFGAGTTLTVL
# notes: One polypeptide (scFv from a chicken antibody phage display library) with a hexa-histidine tag; used as phage periplasmic supernatant; also called anti-PROX1-scFv-His; scFv-His
# Target: T1, PROX1 protein of mouse retinal tissue (mouse, UniProt P48437 1-737)
# T1 construct: Endogenous protein
# T1 sequence (looked up): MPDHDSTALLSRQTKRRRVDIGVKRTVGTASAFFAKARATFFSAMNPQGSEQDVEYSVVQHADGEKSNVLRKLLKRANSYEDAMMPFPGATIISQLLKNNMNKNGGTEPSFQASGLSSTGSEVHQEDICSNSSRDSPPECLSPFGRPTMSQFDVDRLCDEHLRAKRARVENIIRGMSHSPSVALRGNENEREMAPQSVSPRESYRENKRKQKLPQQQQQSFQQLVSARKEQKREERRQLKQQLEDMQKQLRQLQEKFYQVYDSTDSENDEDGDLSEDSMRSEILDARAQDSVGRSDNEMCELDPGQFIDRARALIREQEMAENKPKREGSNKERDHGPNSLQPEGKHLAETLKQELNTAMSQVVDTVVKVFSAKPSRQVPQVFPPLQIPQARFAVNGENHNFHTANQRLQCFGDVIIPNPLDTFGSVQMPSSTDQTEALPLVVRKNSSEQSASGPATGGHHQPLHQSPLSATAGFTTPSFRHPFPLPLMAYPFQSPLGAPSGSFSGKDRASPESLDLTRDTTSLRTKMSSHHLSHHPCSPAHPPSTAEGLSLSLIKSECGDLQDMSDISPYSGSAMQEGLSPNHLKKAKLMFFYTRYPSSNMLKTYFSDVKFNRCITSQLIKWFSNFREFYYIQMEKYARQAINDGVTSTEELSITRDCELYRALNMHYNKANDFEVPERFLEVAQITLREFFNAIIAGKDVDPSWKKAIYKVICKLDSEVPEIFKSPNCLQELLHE
# Test: immunoprecipitation with Ni-NTA beads from mouse retinal tissue lysate, Western blot
# Procedure: Protein samples were prepared from mice cortex tissue not expressing PROX1 protein and mouse retinal tissue expressing PROX1 protein and PROX1 neutralizing single chain antibody (anti-PROX1-scFv-His) at 4° C. for 16 hours, followed by Ni-NTA beads for 4 hours. Thereafter, the Ni-NTA bead immune complex was washed five times with a washing buffer (50 mM imidazole and protease inhibitor) and a Western blot experiment was performed to confirm the binding ability of the single chain antibody to the PROX1 protein.
# Thereafter, the Ni-NTA bead immune complex was washed 5 times with a washing buffer (50 mM imidazole and protease inhibitor) and a Western blot experiment was performed to confirm the binding ability of the PROX1 neutralizing single chain antibody to the PROX1 protein (see FIG. 1).
binder,measurement,value
B1,binding result,binds
